B1: EE1234L (peptide)
coil peptide: LEIEAAFLEQENTALETEVAELEQEVQRLENIVSQYETRYGPLGGGK
notes: also called EE1234L (pI=3.7); acidic coil peptide
B2: RR1234L (peptide)
coil peptide: KGGGLEIRAAFLRRRNTALRTRVAELRQRVQRLRNIVSQYETRYGPL
notes: also called RR1234L (pI=12.4); basic coil peptide

Key:
[1] = homodimer, circular dichroism thermal denaturation; unit inferred
[2] = target: the molecule itself; assay: homodimer, circular dichroism thermal denaturation; unit not given
RR1234L = target: B2; assay: heterodimer, circular dichroism thermal denaturation; unit inferred

Row | Protein | Tm [1] [°C] | ΔG [2] | ΔH [2] | Tm (RR1234L) [°C]
1 | B1 | 28 | -6.2 | -45 | > 90
2 | B2 | 44 | -9.4 | -66 | 

— patent publication US20120040900A1 (BRIGHAM AND WOMEN S HOSPITAL, published 2012)
